B1: Streptococcus pneumoniae pneumolysin, recombinant (natural protein)
chain: ANKAVNDFILAMNYDKKKLLTHQGESIENRFIKEGNQLPDEFVVIERKKRSLSTNTSDISVTATNDSRLYPGALLVVDETLLENNPTLLAVDRAPMTYSIDLPGLASSDSFLQVEDPSNSSVRGAVNDLLAKWHQDYGQVNNVPARMQYEKITAHSMEQLKVKFGSDFEKTGNSLDIDFNSVHSGEKQIQIVNFKQIYYTVSVDAVKNPGDVFQDTVTVEDLKQRGISAERPLVYISSVAYGRQVYLKLETTSKSDEVEAAFEALIKGVKVAPQTEWKQILDNTEVKAVILGGDPSSGARVVTGKVDMVEDLIQEGSRFTADHPGLPISYTTSFLRDNVVATFQNSTDYVETKVTAYRNGDLLLDHSGAYVAQYYITWDELSYDHQGKEVLTPKAWDRNGQDLTAHFTTSIPLKGNVRNLSVKIRECTGLAWEWWRTVYEKTDLPLVRKRTISIWGTTLYPQVEDKVEND
notes: pneumolysin of S. pneumoniae strain R6, residues 2-471 of WP_001284359.1; pQE30 vector; In the folding assays it was denatured in 8 M urea and then diluted; also called Ply; Ply toxin

Columns and labels:
[1] = molecular target: T1, Streptococcus pneumoniae SlrA (Streptococcus pneumoniae strain R6, UniProt Q8DQG5 19-267); experiment: MST; chaperone labelled with red NHS dye kept at 20 nM, unlabelled protein in serial dilution; pH 6.5, 0.05% Tween 20, 25 C; 1:1 model in PALMIST, 95% CI; conditions: both partners purified
T1 construct: also called SpnSlrA; hexa-his-tagged SpnSlrA; source: E. coli BL21 (DE3), expressed and purified similarly to Ply (Ni-NTA, dialysis); not shown: His6, N-terminal, kept

[2] = molecular target: T1, Streptococcus pneumoniae SlrA; experiment: ITC; chaperone in the syringe, Ply in the sample cell; 20 mM MES, 100 mM NaCl, 1 mM beta-mercaptoethanol, 10% glycerol, pH 6.5, 25 C; independent binding model; conditions: both partners purified
[3] = molecular target: the molecule itself; experiment: crystal structure; X-ray structures of SpnPrsA (2.55 A) and SmuPrsA (3.15 A); dimers in the crystal
[4] = molecular target: B1; experiment: MST; chaperone labelled with red NHS dye kept at 20 nM, unlabelled protein in serial dilution; pH 6.5, 0.05% Tween 20, 25 C; 1:1 model in PALMIST, 95% CI; conditions: both partners purified
bovine serum albumin = molecular target: T2, bovine serum albumin (bovine, UniProt P02769 25-607); experiment: as above; conditions: both partners purified
T2 construct: also called BSA

[5] = molecular target: B1; experiment: ITC; chaperone in the syringe, Ply in the sample cell; 20 mM MES, 100 mM NaCl, 1 mM beta-mercaptoethanol, 10% glycerol, pH 6.5, 25 C; independent binding model; conditions: both partners purified

T2 sequence (P02769 25-607): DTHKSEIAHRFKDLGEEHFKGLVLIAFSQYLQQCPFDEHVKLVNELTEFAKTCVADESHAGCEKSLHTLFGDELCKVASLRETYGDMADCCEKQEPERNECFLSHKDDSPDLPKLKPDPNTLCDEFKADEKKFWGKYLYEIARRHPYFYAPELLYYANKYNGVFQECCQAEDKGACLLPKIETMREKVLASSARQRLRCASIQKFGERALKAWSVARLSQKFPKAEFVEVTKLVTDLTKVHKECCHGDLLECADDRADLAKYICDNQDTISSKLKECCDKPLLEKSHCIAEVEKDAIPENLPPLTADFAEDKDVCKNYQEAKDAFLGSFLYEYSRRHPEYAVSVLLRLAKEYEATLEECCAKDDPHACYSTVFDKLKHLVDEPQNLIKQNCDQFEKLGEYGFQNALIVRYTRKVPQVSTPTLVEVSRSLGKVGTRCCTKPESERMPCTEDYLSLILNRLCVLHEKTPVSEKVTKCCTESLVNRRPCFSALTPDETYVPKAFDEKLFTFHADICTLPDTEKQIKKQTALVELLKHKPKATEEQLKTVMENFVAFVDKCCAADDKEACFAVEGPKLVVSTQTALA

Binder	Kd [1]	Ka [2]	Kd [2]	binding result [3]	Kd [4]	Kd (bovine serum albumin)	Ka [5]	Kd [5]	dH [5]	stoichiometry N [5]
B1	60 nM	1.23e+07 M⁻¹	81.2 ± 18 nM	–	–	–	–	–	–	–
Streptococcus pneumoniae PrsA (enzyme, also called SpnPrsA; hexa-his-tagged SpnPrsA; not shown: His6, N-terminal, kept) GADLISMKGDVITEHQFYEQVKNNPSAQQVLLNMTIQKVFEKQYGSELDDKEVDDTIAEEKKQYGENYQRVLSQAGMTLETRKAQIRTSKLVELAVKKVAEAELTDEAYKKAFDEYTPDVTAQIIRLNNEDKAKEVLEKAKAEGADFAQLAKDNSTDEKTKENGGEITFDSASTEVPEQVKKAAFALDVDGVSDVITATGTQAYSSQYYIVKLTKKTEKSSNIDDYKEKLKTVILTQKQNDSTFVQSIIGKELQAANIKVKDQAFQNIFTQYIGGGDSSSSSSTSNE	–	–	–	binds	70 nM	62000 ± 58000 nM	8.38e+06 M⁻¹	119 ± 25.9 nM	-100 ± 3.74 kcal/mol	1.85
Streptococcus mutans PrsA (enzyme, also called SmuPrsA) ACSKTNQNSKIATMKGDTITVADFYNEVKNSTASKQAVLSLLVSKVFEKQYGDKVSDKEVTKAYNEAAKYYGDSFSSALASRGYTKEDYKKQIRSEKLIEYAVKEEAKKEITDASYKSAYKDYKPEVTAQVIQLDSEDKAKSVLEEAKADGADFAKIAKDNTKGDKTEYSFDSGSTNLPSQVLSAALNLDKDGVSDVIKASDSTTYKPVYYIVKITKKTDKNADWKAYKKRLKEIIVSQKLNDSNFRNAVIGKAFKKANVKIKDKAFSEILSQY	–	–	–	binds	–	–	–	–	–	–

From article PMC11853100, “Structural analysis of extracellular ATP-independent chaperones of streptococcal species and protein substrate interactions” (mSphere, 2025)
